The values that follow come from PMC11116900, “Interaction among homeodomain transcription factors mediates ethylene biosynthesis during pear fruit ripening”.

Common to all, as to assay: EMSA; competed by 10x and 100x cold probe; EMSA according to a previous study (ref 35); buffer, salt, pH and temperature not given
Conditions in all cases: protein: recombinant; tags: TF (trigger factor) fusion from pCold-TF; chain copies: 2; label: biotin

One data set has as its target T1, PbHB.G1 (pear (Pyrus; species  in the …, UniProt UPI0020301D10 1-344).
T1 sequence: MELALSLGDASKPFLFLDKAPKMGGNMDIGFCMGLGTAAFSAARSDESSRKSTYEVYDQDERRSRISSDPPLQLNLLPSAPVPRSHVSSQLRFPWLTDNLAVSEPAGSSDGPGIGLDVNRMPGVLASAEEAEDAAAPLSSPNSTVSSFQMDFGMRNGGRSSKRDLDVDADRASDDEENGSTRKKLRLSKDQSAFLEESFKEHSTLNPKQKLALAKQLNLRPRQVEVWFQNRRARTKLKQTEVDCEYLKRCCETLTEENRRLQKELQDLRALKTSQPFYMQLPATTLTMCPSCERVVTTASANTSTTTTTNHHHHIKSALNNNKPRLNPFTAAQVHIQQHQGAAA

Another data set deals with T2, PbHB.G2.1 (pear (Pyrus; species  in the …, UniProt A0A5N5HPW9 1-368).
T2 sequence: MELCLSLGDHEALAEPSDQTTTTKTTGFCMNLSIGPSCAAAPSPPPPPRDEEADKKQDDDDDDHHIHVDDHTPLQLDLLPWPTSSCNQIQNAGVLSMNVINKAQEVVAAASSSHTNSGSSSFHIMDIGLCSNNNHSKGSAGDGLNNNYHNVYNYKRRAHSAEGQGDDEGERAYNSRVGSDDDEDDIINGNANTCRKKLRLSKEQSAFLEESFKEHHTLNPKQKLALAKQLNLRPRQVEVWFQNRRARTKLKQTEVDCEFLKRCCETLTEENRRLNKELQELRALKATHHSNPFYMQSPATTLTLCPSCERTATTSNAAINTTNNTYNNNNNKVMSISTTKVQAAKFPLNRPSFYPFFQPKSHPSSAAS

A further data set addresses T3, PbHB.G7.2 (pear (Pyrus; species  in the …, UniProt A0A5N5HLN1 1-287).
T3 sequence: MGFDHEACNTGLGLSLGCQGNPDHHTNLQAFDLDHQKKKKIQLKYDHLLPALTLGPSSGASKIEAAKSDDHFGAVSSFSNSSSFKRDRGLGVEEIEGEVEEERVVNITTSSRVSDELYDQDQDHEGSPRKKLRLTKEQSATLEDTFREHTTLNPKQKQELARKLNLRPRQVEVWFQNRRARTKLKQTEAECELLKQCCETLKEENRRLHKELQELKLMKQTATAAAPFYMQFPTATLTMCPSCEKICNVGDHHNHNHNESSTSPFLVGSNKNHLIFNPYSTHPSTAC

B1: PbACS1b promoter P16 probe 1 (33 bp) (dsDNA)
DNA 1: TTATATGTTGTATCTTATTTCATCGTTGATTAC
DNA 2: GTAATCAACGATGAAATAAGATACAACATATAA
As for B1, the binding result with PbHB.G1 is given as “binds”.

B2: PbACS1b promoter P17 probe 2 (40 bp) (dsDNA)
DNA 1: CCTCAAGGAAATAGTAATACCCTTTAGATTTGAAGTCCTA
DNA 2: TAGGACTTCAAATCTAAAGGGTATTACTATTTCCTTGAGG
B2: the binding result in the data set with PbHB.G2.1 is “binds”.

B3: PbACS1b promoter P9 probe (34 bp) (dsDNA)
DNA 1: CTTATGGGTCGGTTTTTCTACATTTGAATTTTGA
DNA 2: TCAAAATTCAAATGTAGAAAAACCGACCCATAAG
As to B3, in the data set with PbHB.G7.2, the binding result is reported as “binds”.
